The values below come from article PMC5394233, “Structural and functional analysis of the human POT1-TPP1 telomeric complex” (Nature Communications, 2017).

The Kd is the equilibrium constant for the complex coming apart.

One data set has as its target POT1C;TPP1(PBD) (Homo sapiens;Homo sapiens, UniProt Q9NUX5;Q96AP0 330-634;169-251, |). Kind of data set: fluorescence polarization; up to 5 uM protein; FP: 20 mM Hepes pH 7.5, 100 mM KCl, 2 mM MgCl2, 1 mM EDTA, 2 mM DTT, 1 mg/ml BSA, 5% glycerol, 75 nM polyT50 competitor, 2.5 nM probe, room temperature 30 min. To be noted: protein: recombinant;recombinant; tags: N-terminal His6-pMocr, TEV-cleaved;N-terminal His6, TEV-cleaved; copies: 1;1; label: 5' 6-FAM; single strand. In general terms: Polarisation of emitted light reports the rotation of a fluorescent probe.

The next data set concerns the target T1, flPOT1 Q623H (Homo sapiens, UniProt Q9NUX5 1-634, Q623H).
T1 sequence: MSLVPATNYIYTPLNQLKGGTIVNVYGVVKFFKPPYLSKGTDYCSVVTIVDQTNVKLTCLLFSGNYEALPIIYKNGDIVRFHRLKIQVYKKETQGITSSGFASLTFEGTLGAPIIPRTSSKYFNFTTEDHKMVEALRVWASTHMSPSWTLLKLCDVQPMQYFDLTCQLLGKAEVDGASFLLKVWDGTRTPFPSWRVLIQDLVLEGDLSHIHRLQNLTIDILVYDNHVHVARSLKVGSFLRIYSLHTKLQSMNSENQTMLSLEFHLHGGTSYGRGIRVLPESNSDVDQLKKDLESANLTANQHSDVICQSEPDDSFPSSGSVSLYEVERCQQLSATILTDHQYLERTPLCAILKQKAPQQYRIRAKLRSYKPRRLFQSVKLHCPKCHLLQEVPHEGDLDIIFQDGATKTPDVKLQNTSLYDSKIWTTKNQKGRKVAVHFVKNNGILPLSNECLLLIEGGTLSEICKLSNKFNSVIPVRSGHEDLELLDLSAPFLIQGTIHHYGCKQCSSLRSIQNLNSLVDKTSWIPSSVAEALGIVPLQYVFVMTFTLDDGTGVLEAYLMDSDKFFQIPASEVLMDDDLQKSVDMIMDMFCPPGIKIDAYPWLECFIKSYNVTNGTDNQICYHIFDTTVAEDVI
Kind of data set: fluorescence polarization; FP: 20 mM Hepes pH 7.5, 100 mM KCl, 2 mM MgCl2, 1 mM EDTA, 2 mM DTT, 1 mg/ml BSA, 5% glycerol, 75 nM polyT50 competitor, 2.5 nM probe, room temperature 30 min. The settings on record: protein: recombinant; tags: N-terminal His6-pMocr, TEV-cleaved; label: 5' 6-FAM; single strand.

The next data set deals with flPOT1 Q623H;TPP1(87) (Homo sapiens;Homo sapiens, UniProt Q9NUX5;Q96AP0 1-634;1-458, Q623H|). The data set is described as above. To be noted: protein: recombinant;recombinant, tags: N-terminal His6-pMocr, TEV-cleaved;N-terminal His6-MBP, copies: 1;1, label: 5' 6-FAM, single strand.
flPOT1 Q623H;TPP1(87), sequence (Q96AP0 whole entry, chain 2 of 2, one chain of several): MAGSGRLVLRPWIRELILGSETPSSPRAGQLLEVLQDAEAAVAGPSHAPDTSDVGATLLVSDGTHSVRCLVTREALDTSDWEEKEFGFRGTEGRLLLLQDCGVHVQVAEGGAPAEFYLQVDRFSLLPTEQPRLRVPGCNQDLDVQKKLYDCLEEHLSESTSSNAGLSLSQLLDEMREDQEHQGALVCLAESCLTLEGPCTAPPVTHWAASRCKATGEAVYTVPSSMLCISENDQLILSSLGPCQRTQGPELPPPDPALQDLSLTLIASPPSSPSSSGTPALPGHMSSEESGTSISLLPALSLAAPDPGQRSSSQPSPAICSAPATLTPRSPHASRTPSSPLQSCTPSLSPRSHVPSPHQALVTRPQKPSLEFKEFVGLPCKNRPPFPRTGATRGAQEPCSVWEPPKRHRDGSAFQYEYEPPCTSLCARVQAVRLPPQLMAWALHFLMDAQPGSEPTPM
The target of another data set is T2, flPOT1 P446Q (Homo sapiens, UniProt Q9NUX5 1-634, P446Q).
T2 sequence: T1 sequence with P446Q, H623Q
The data set is described as above. The settings on record: protein: recombinant; tags: N-terminal His6-pMocr, TEV-cleaved; label: 5' 6-FAM; single strand.

The target in the next data set is flPOT1 WT;TPP1(87) (Homo sapiens;Homo sapiens, UniProt Q9NUX5;Q96AP0 1-634;1-458, |). The description is as above. To be noted: protein: recombinant;recombinant, tags: N-terminal His6-pMocr, TEV-cleaved;N-terminal His6-MBP, copies: 1;1, label: 5' 6-FAM, single strand.
flPOT1 WT;TPP1(87), sequence (Q9NUX5 whole entry, chain 1 of 2): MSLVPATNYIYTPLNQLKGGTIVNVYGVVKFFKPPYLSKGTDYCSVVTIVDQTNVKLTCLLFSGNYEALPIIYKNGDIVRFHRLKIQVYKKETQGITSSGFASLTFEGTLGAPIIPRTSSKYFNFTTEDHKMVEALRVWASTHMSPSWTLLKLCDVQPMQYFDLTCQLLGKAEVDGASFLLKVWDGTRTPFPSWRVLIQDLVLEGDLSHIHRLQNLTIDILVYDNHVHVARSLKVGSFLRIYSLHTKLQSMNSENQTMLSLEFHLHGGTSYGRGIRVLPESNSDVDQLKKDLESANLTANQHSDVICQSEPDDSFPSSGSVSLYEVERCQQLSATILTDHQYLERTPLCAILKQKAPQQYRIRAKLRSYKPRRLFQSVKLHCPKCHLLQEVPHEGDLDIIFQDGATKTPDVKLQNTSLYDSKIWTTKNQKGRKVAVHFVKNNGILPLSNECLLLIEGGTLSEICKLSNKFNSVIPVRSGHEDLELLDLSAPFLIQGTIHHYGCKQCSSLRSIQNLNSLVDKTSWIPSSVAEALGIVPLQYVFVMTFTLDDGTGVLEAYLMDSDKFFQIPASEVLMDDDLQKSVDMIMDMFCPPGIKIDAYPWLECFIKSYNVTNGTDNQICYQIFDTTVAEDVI
flPOT1 WT;TPP1(87), sequence (Q96AP0 whole entry, chain 2 of 2): as the sequence (Q96AP0 whole entry, chain 2 of 2, one chain of several) above
Another data set addresses flPOT1 A532P;TPP1(87) (Homo sapiens;Homo sapiens, UniProt Q9NUX5;Q96AP0 1-634;1-458, A532P|). Kind of data set: fluorescence polarization; wild-type affinity stated; FP: 20 mM Hepes pH 7.5, 100 mM KCl, 2 mM MgCl2, 1 mM EDTA, 2 mM DTT, 1 mg/ml BSA, 5% glycerol, 75 nM polyT50 competitor, 2.5 nM probe, room temperature 30 min. To be noted: protein: recombinant;recombinant, tags: N-terminal His6-pMocr, TEV-cleaved;N-terminal His6-MBP, copies: 1;1, label: 5' 6-FAM, single strand.

The next data set concerns the target flPOT1 L343F;TPP1(87) (Homo sapiens;Homo sapiens, UniProt Q9NUX5;Q96AP0 1-634;1-458, L343F|). Described as above. The settings on record: protein: recombinant;recombinant, tags: N-terminal His6-pMocr, TEV-cleaved;N-terminal His6-MBP, copies: 1;1, label: 5' 6-FAM, single strand.
For a further data set, the target named is flPOT1 R477T;TPP1(87) (Homo sapiens;Homo sapiens, UniProt Q9NUX5;Q96AP0 1-634;1-458, R477T|). Described as above. The settings on record: protein: recombinant;recombinant, tags: N-terminal His6-pMocr, TEV-cleaved;N-terminal His6-MBP, copies: 1;1, label: 5' 6-FAM, single strand.
flPOT1 R477T;TPP1(87), sequence (Q96AP0 whole entry, stated change not applied, one chain of several): as the sequence (Q96AP0 whole entry, chain 2 of 2, one chain of several) above

Numbering of substitutions follows the chain as printed.

POT1C;TPP1(PBD), sequence (Q96AP0 169-251, one chain of several): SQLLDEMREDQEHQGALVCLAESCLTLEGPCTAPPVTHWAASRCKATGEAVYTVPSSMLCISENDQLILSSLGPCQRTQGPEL
flPOT1 A532P;TPP1(87), sequence (Q96AP0 whole entry, stated change not applied, one chain of several): as the sequence (Q96AP0 whole entry, chain 2 of 2, one chain of several) above
flPOT1 L343F;TPP1(87), sequence (Q96AP0 whole entry, stated change not applied, one chain of several): as the sequence (Q96AP0 whole entry, chain 2 of 2, one chain of several) above

B1: telomeric 18mer (TTAGGG)3 (ssDNA)
DNA: TTAGGGTTAGGGTTAGGG
B1: the binding result with POT1C;TPP1(PBD) is “no binding”; with flPOT1 A532P;TPP1(87) it was “binds”; in the data set with flPOT1 L343F;TPP1(87), “binds”; in the data set with flPOT1 R477T;TPP1(87), “binds”. Moreover, the Kd with flPOT1 Q623H was approximately 20 nM; with flPOT1 Q623H;TPP1(87) it was 8.9 ± 1 nM; with flPOT1 P446Q, approximately 20 nM; with flPOT1 WT;TPP1(87), approximately 5.8 nM.
